Source: PMC9482650, “Quantitative fragmentomics allow affinity mapping of interactomes” (Nature Communications, 2022)

T1: MPDZ_10, O75970
T1 sequence (O75970 1624-1722, limits assumed, looked up): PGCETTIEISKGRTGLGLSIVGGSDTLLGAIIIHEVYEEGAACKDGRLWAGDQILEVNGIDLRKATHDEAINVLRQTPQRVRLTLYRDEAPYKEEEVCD

T2: DLG3_2, Q92796
T2 sequence (Q92796 221-321, limits assumed, looked up): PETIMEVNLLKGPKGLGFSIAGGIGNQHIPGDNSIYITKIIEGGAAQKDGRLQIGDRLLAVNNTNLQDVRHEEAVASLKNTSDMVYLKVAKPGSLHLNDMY

T3: DLG3_1, Q92796
T3 sequence (Q92796 125-227, limits assumed, looked up): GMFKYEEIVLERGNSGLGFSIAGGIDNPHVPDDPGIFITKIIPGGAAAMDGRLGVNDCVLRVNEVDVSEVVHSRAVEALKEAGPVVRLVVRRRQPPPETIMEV

T4: LIN7B, Q9HAP6
T4 sequence (Q9HAP6 88-185, limits assumed, looked up): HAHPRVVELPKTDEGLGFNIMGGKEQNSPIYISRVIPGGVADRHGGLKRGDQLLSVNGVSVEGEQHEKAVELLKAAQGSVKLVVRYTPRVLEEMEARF

T5: MPDZ_12, O75970
T5 sequence (O75970 1857-1958, limits assumed, looked up): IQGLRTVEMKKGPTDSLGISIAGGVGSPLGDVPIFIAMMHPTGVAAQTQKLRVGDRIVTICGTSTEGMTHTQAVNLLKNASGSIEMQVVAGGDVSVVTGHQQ

T6: NHERF3_3, Q5T2W1
T6 sequence (Q5T2W1 238-333, limits assumed, looked up): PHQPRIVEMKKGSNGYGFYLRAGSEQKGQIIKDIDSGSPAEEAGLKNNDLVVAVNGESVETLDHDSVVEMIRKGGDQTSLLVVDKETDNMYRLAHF

T7: SIPA1L2, Q9P2F8
T7 sequence (Q9P2F8 945-1036, limits assumed, looked up): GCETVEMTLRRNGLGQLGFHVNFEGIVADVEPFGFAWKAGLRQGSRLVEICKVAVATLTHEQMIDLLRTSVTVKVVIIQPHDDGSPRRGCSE

T8: MPDZ_5, O75970
T8 sequence (O75970 695-796, limits assumed, looked up): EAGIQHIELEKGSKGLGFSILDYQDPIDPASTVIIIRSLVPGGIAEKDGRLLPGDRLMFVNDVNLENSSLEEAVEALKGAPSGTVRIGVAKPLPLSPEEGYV

T9: DFNB31_1, Q9P202
T9 sequence (Q9P202 135-233, limits assumed, looked up): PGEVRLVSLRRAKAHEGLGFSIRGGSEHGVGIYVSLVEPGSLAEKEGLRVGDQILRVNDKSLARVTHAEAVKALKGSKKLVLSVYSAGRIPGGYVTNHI

T10: SNTG2, Q9NY99
T10 sequence (Q9NY99 68-166, limits assumed, looked up): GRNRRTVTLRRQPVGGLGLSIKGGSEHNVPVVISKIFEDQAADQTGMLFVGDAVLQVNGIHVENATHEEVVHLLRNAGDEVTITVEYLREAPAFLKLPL

T11: PDZRN3_1, Q9UPQ7
T11 sequence (Q9UPQ7 244-349, limits assumed, looked up): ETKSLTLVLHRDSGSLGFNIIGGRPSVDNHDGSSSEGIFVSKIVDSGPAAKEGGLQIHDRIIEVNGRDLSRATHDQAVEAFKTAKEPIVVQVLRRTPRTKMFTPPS

T12: RAPGEF6, Q8TEU7
T12 sequence (Q8TEU7 525-625, limits assumed, looked up): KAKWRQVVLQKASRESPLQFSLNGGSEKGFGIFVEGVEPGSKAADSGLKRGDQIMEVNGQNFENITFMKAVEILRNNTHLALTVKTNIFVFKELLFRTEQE


molecular target: T1, MPDZ_10, O75970; assay: holdup assay; parameters: key: below the threshold = too weak to quantify, mostly under pKd 3.1 to 4; settings: plain residues with an end cap or a label only (N-terminal biotin on a linker: ado-ado)

| Binder | pKd |
| --- | --- |
| REEPDHSTEV [CCRL2, O00421] | 3.7 |
| QSYPSKHDYV [CLDN18, P56856] | 3.64 |

molecular target: AHNAK1, Q09666; assay: holdup assay; parameters: key: below the threshold = too weak to quantify, mostly under pKd 3.1 to 4; settings: plain residues with an end cap or a label only (N-terminal biotin on a linker: ado-ado)
Sequence (Q09666 4-100): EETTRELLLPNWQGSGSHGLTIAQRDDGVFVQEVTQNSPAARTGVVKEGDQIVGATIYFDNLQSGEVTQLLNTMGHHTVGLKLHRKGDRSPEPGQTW

| Binder | pKd |
| --- | --- |
| REEPDHSTEV [CCRL2, O00421] | below the threshold |
| QSYPSKHDYV [CLDN18, P56856] | below the threshold |

molecular target: T2, DLG3_2, Q92796; assay: holdup assay; parameters: key: below the threshold = too weak to quantify, mostly under pKd 3.1 to 4; settings: plain residues with an end cap or a label only (N-terminal biotin on a linker: ado-ado)

| Binder | pKd |
| --- | --- |
| REEPDHSTEV [CCRL2, O00421] | 4.59 |
| QSYPSKHDYV [CLDN18, P56856] | below the threshold |

molecular target: Inadl_5, Q8NI35; assay: holdup assay; parameters: key: below the threshold = too weak to quantify, mostly under pKd 3.1 to 4; settings: plain residues with an end cap or a label only (N-terminal biotin on a linker: ado-ado)
Sequence (Q8NI35 673-780): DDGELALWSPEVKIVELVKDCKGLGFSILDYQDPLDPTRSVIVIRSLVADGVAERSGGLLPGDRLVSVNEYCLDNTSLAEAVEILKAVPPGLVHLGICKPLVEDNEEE

| Binder | pKd |
| --- | --- |
| REEPDHSTEV [CCRL2, O00421] | below the threshold |
| QSYPSKHDYV [CLDN18, P56856] | 3.57 |

molecular target: SCRIB_1, Q14160; assay: holdup assay; parameters: key: below the threshold = too weak to quantify, mostly under pKd 3.1 to 4; settings: plain residues with an end cap or a label only (N-terminal biotin on a linker: ado-ado)
Sequence (Q14160 718-814): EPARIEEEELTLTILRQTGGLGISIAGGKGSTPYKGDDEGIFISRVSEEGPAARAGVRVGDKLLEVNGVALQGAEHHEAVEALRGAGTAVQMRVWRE

| Binder | pKd |
| --- | --- |
| REEPDHSTEV [CCRL2, O00421] | 4.03 |
| QSYPSKHDYV [CLDN18, P56856] | below the threshold |

molecular target: SNX27, Q96L92; assay: holdup assay; parameters: key: below the threshold = too weak to quantify, mostly under pKd 3.1 to 4; settings: plain residues with an end cap or a label only (N-terminal biotin on a linker: ado-ado)

| Binder | pKd |
| --- | --- |
| REEPDHSTEV [CCRL2, O00421] | 4.73 |
| QSYPSKHDYV [CLDN18, P56856] | 3.83 |

molecular target: T3, DLG3_1, Q92796; assay: holdup assay; parameters: key: below the threshold = too weak to quantify, mostly under pKd 3.1 to 4; settings: plain residues with an end cap or a label only (N-terminal biotin on a linker: ado-ado)

| Binder | pKd |
| --- | --- |
| REEPDHSTEV [CCRL2, O00421] | 4.26 |
| QSYPSKHDYV [CLDN18, P56856] | below the threshold |

molecular target: T4, LIN7B, Q9HAP6; assay: holdup assay; parameters: key: below the threshold = too weak to quantify, mostly under pKd 3.1 to 4; settings: plain residues with an end cap or a label only (N-terminal biotin on a linker: ado-ado)

| Binder | pKd |
| --- | --- |
| REEPDHSTEV [CCRL2, O00421] | below the threshold |
| QSYPSKHDYV [CLDN18, P56856] | below the threshold |

molecular target: T5, MPDZ_12, O75970; assay: holdup assay; parameters: key: below the threshold = too weak to quantify, mostly under pKd 3.1 to 4; settings: plain residues with an end cap or a label only (N-terminal biotin on a linker: ado-ado)

| Binder | pKd |
| --- | --- |
| REEPDHSTEV [CCRL2, O00421] | below the threshold |
| QSYPSKHDYV [CLDN18, P56856] | below the threshold |

molecular target: T6, NHERF3_3, Q5T2W1; assay: holdup assay; parameters: key: below the threshold = too weak to quantify, mostly under pKd 3.1 to 4; settings: plain residues with an end cap or a label only (N-terminal biotin on a linker: ado-ado)

| Binder | pKd |
| --- | --- |
| REEPDHSTEV [CCRL2, O00421] | below the threshold |
| QSYPSKHDYV [CLDN18, P56856] | below the threshold |

molecular target: Inadl_3, Q8NI35; assay: holdup assay; parameters: key: below the threshold = too weak to quantify, mostly under pKd 3.1 to 4; settings: plain residues with an end cap or a label only (N-terminal biotin on a linker: ado-ado)
Sequence (Q8NI35 359-469): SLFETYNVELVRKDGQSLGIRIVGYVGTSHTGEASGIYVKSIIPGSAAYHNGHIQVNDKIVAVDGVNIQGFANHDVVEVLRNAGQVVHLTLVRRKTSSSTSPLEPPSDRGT

| Binder | pKd |
| --- | --- |
| REEPDHSTEV [CCRL2, O00421] | 3.85 |
| QSYPSKHDYV [CLDN18, P56856] | below the threshold |

molecular target: TJP1_3, Q07157; assay: holdup assay; parameters: key: below the threshold = too weak to quantify, mostly under pKd 3.1 to 4; settings: plain residues with an end cap or a label only (N-terminal biotin on a linker: ado-ado)
Sequence (Q07157 416-512): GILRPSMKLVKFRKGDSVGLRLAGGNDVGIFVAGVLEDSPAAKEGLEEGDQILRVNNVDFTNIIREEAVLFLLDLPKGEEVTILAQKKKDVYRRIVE

| Binder | pKd |
| --- | --- |
| REEPDHSTEV [CCRL2, O00421] | 3.48 |
| QSYPSKHDYV [CLDN18, P56856] | below the threshold |

molecular target: NHERF4_4, Q86UT5; assay: holdup assay; parameters: key: below the threshold = too weak to quantify, mostly under pKd 3.1 to 4; settings: plain residues with an end cap or a label only (N-terminal biotin on a linker: ado-ado)
Sequence (Q86UT5 464-550): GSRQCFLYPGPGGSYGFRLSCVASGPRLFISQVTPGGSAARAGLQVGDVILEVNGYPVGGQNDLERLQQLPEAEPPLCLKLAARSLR

| Binder | pKd |
| --- | --- |
| REEPDHSTEV [CCRL2, O00421] | below the threshold |
| QSYPSKHDYV [CLDN18, P56856] | 4.03 |

molecular target: T7, SIPA1L2, Q9P2F8; assay: holdup assay; parameters: key: below the threshold = too weak to quantify, mostly under pKd 3.1 to 4; settings: plain residues with an end cap or a label only (N-terminal biotin on a linker: ado-ado)

| Binder | pKd |
| --- | --- |
| REEPDHSTEV [CCRL2, O00421] | below the threshold |
| QSYPSKHDYV [CLDN18, P56856] | 3.53 |

molecular target: DLG1_3, Q12959; assay: holdup assay; parameters: key: below the threshold = too weak to quantify, mostly under pKd 3.1 to 4; settings: plain residues with an end cap or a label only (N-terminal biotin on a linker: ado-ado)
Sequence (Q12959 457-571): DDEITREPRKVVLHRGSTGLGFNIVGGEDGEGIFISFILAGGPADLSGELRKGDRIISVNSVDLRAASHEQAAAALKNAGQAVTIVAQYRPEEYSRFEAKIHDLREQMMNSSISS

| Binder | pKd |
| --- | --- |
| REEPDHSTEV [CCRL2, O00421] | below the threshold |
| QSYPSKHDYV [CLDN18, P56856] | 3.49 |

molecular target: FRMPD2_3, Q68DX3; assay: holdup assay; parameters: key: below the threshold = too weak to quantify, mostly under pKd 3.1 to 4; settings: plain residues with an end cap or a label only (N-terminal biotin on a linker: ado-ado)
Sequence (Q68DX3 1073-1166): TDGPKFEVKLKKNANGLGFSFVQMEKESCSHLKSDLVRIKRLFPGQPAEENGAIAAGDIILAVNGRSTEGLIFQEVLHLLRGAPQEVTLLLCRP

| Binder | pKd |
| --- | --- |
| REEPDHSTEV [CCRL2, O00421] | below the threshold |
| QSYPSKHDYV [CLDN18, P56856] | below the threshold |

molecular target: T8, MPDZ_5, O75970; assay: holdup assay; parameters: key: below the threshold = too weak to quantify, mostly under pKd 3.1 to 4; settings: plain residues with an end cap or a label only (N-terminal biotin on a linker: ado-ado)

| Binder | pKd |
| --- | --- |
| REEPDHSTEV [CCRL2, O00421] | below the threshold |
| QSYPSKHDYV [CLDN18, P56856] | below the threshold |

molecular target: T9, DFNB31_1, Q9P202; assay: holdup assay; parameters: key: below the threshold = too weak to quantify, mostly under pKd 3.1 to 4; settings: plain residues with an end cap or a label only (N-terminal biotin on a linker: ado-ado)

| Binder | pKd |
| --- | --- |
| REEPDHSTEV [CCRL2, O00421] | 4.03 |
| QSYPSKHDYV [CLDN18, P56856] | 3.49 |

molecular target: T10, SNTG2, Q9NY99; assay: holdup assay; parameters: key: below the threshold = too weak to quantify, mostly under pKd 3.1 to 4; settings: plain residues with an end cap or a label only (N-terminal biotin on a linker: ado-ado)

| Binder | pKd |
| --- | --- |
| REEPDHSTEV [CCRL2, O00421] | 3.73 |
| QSYPSKHDYV [CLDN18, P56856] | below the threshold |

molecular target: T11, PDZRN3_1, Q9UPQ7; assay: holdup assay; parameters: key: below the threshold = too weak to quantify, mostly under pKd 3.1 to 4; settings: plain residues with an end cap or a label only (N-terminal biotin on a linker: ado-ado)

| Binder | pKd |
| --- | --- |
| REEPDHSTEV [CCRL2, O00421] | 4.2 |
| QSYPSKHDYV [CLDN18, P56856] | below the threshold |

molecular target: GRID2IP_1, A4D2P6; assay: holdup assay; parameters: key: below the threshold = too weak to quantify, mostly under pKd 3.1 to 4; settings: plain residues with an end cap or a label only (N-terminal biotin on a linker: ado-ado)
Sequence (A4D2P6 1-87): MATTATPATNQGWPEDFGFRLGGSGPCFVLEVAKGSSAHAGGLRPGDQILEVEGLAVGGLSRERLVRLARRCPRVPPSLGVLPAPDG

| Binder | pKd |
| --- | --- |
| REEPDHSTEV [CCRL2, O00421] | below the threshold |
| QSYPSKHDYV [CLDN18, P56856] | below the threshold |

molecular target: LDB3, O75112; assay: holdup assay; parameters: key: below the threshold = too weak to quantify, mostly under pKd 3.1 to 4; settings: plain residues with an end cap or a label only (N-terminal biotin on a linker: ado-ado)
Sequence (O75112 1-94): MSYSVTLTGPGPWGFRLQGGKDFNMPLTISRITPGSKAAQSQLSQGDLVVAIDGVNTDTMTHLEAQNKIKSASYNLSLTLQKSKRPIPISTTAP

| Binder | pKd |
| --- | --- |
| REEPDHSTEV [CCRL2, O00421] | below the threshold |
| QSYPSKHDYV [CLDN18, P56856] | below the threshold |

molecular target: T12, RAPGEF6, Q8TEU7; assay: holdup assay; parameters: key: below the threshold = too weak to quantify, mostly under pKd 3.1 to 4; settings: plain residues with an end cap or a label only (N-terminal biotin on a linker: ado-ado)

| Binder | pKd |
| --- | --- |
| REEPDHSTEV [CCRL2, O00421] | below the threshold |
| QSYPSKHDYV [CLDN18, P56856] | below the threshold |

molecular target: NHERF4_2, Q86UT5; assay: holdup assay; parameters: key: below the threshold = too weak to quantify, mostly under pKd 3.1 to 4; settings: plain residues with an end cap or a label only (N-terminal biotin on a linker: ado-ado)
Sequence (Q86UT5 220-308): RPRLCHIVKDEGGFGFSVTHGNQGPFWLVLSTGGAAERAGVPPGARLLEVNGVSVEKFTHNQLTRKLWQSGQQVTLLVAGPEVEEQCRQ

| Binder | pKd |
| --- | --- |
| REEPDHSTEV [CCRL2, O00421] | below the threshold |
| QSYPSKHDYV [CLDN18, P56856] | 3.59 |
